Data on 55 substances can be found in patent US11260115B1, “Peptides and combination of peptides for use in immunotherapy against CLL and other cancers” (immatics biotechnologies GmbH, priority 2015, dated 2022).

For the experiment, the target named is HLA-A*02:01 (Homo sapiens, UniProt P04439, D140Y/D185E/D98H/E176V/E277Q/G131W/G231S/I119V/I121R/I166T/I218V/L300P/L318F/N151K/N90K/P208A/P217A/Q86G/Q94H/R138H/R169H/T345S). Briefly: MHC binding assay (UV-ligand exchange, β2m ELISA, peptide exchange yield). The following applies: binding to HLA-A*02:01. The text has this:
Candidate peptides for T cell based therapies according to the present invention were further tested for their MHC binding capacity (affinity). The individual peptide-MHC complexes were produced by UV-ligand exchange, where a UV-sensitive peptide is cleaved upon UV-irradiation, and exchanged with the peptide of interest as analyzed. Only peptide candidates that can effectively bind and stabilize the peptide-receptive MHC molecules prevent dissociation of the MHC complexes. To determine the yield of the exchange reaction, an ELISA was performed based on the detection of the light chain (β2m) of stabilized MHC complexes. The assay was performed as generally described in Rodenko et al. (Rodenko et al., 2006).
96 well MAXISorp plates (NUNC) were coated over night with 2 ug/ml streptavidin in PBS at room temperature, washed 4× and blocked for 1 h at 37° C. in 2% BSA containing blocking buffer. Refolded HLA-A*02:01/MLA-001 monomers served as standards, covering the range of 15-500 ng/ml. Peptide-MHC monomers of the UV-exchange reaction were diluted 100 fold in blocking buffer. Samples were incubated for 1 h at 37° C., washed four times, incubated with 2 ug/ml HRP conjugated anti-β2m for 1 h at 37° C., washed again and detected with TMB solution that is stopped with […]. Absorption was measured at 450 nm. Candidate peptides that show a high exchange yield (preferably higher than 50%, most preferred higher than 75%) are generally preferred for a generation and production of antibodies or fragments thereof, and/or T cell receptors or fragments thereof, as they show sufficient avidity to the MHC molecules and prevent dissociation of the MHC complexes.
Table 11: MHC class I binding scores. Binding of HLA-class I restricted peptides to HLA-A*02:01 was ranged by peptide exchange yield: ≥10%=+; ≥20%=++; ≥50=+++; ≥75%=++++
For the substance “147 (SILETVATL; listed as Homo sapiens) [compound 147]”, the “Peptide Exchange (MHC class I binding score, peptide exchange yield)” value (from here on “Peptide Exchange”) was ““+++” (>50 = +++)”. For the substance “115 (LLFDKLYLL; listed as Homo sapiens) [compound 115]”, the “Peptide Exchange” value is listed as ““+++” (>50 = +++)”. For “41 (FLDPSLDPLL; listed as Homo sapiens) [compound 41]”, the “Peptide Exchange” value is ““+++” (>50 = +++)”.

In the case of “266 (TLLDQLDTQL; listed as Homo sapiens) [compound 266]”, the “Peptide Exchange” value was ““++” (>20% = ++)”. With “358 (FLTDYLNDL; listed as Homo sapiens) [compound 358]”, the “Peptide Exchange” value is listed as ““+++” (>50 = +++)”. Consider “357 (FLIQEIKTL; listed as Homo sapiens) [compound 357]”, for which the “Peptide Exchange” value was ““+++” (>50 = +++)”. Turning to “297 (FLVEPQEDTRL; listed as Homo sapiens) [compound 297]”, the “Peptide Exchange” value is ““+++” (>50 = +++)”.

As for “367 (NLWSLVAKV; listed as Homo sapiens) [compound 367]”, the “Peptide Exchange” value is on record as ““+++” (>50 = +++)”.

For the substance “346 (VLVQVSPSL; listed as Homo sapiens) [compound 346]”, the “Peptide Exchange” value is given as ““+++” (>50 = +++)”. For the substance “321 (RLLEFELAQL; listed as Homo sapiens) [compound 321]”, the “Peptide Exchange” value was ““+++” (>50 = +++)”.

“270 (TVLPVPPLSV; listed as Homo sapiens) [compound 270]”: the “Peptide Exchange” value is ““+++” (>50 = +++)”. “304 (LAIVPVNTL; listed as Homo sapiens) [compound 304]”: the “Peptide Exchange” value is ““+” (>10% = +)”. As for “88 (ILDEIGADVQA; listed as Homo sapiens) [compound 88]”, the “Peptide Exchange” value was ““+++” (>50 = +++)”. “202 (YVDDVFLRV; listed as Homo sapiens) [compound 202]”: the “Peptide Exchange” value was ““++++” (>75% = ++++)”.

Turning to “157 (SLNIRDFTM; listed as Homo sapiens) [compound 157]”, the “Peptide Exchange” value was ““+++” (>50 = +++)”. On to “263 (SQWEDIHVV; listed as Homo sapiens) [compound 263]”, for which the “Peptide Exchange” value is ““+++” (>50 = +++)”. As to “70 (FVPDTPVGV; listed as Homo sapiens) [compound 70]”, the “Peptide Exchange” value is ““+++” (>50 = +++)”. Regarding “172 (TLYDMLASI; listed as Homo sapiens) [compound 172]”, the “Peptide Exchange” value is reported as ““+++” (>50 = +++)”.

As to “175 (FTVPRVVAV; listed as Homo sapiens) [compound 175]”, the “Peptide Exchange” value is reported as ““+++” (>50 = +++)”. Regarding “365 (LISPLLLPV; listed as Homo sapiens) [compound 365]”, the “Peptide Exchange” value is given as ““+++” (>50 = +++)”. For “196 (YLLLQTYVL; listed as Homo sapiens) [compound 196]”, the “Peptide Exchange” value was ““+” (>10% = +)”. In the case of “29 (AVLQAVTAV; listed as Homo sapiens) [compound 29]”, the “Peptide Exchange” value is ““+++” (>50 = +++)”. The value for “262 (SLWNAGTSV; listed as Homo sapiens) [compound 262]” was ““+++” (>50 = +++)”; that for “211 (LIDVKPLGV; listed as Homo sapiens) [compound 211]” was ““+++” (>50 = +++)”; that for “91 (ILDLNTYNV; listed as Homo sapiens) [compound 91]” was ““+++” (>50 = +++)”. “186 (VMDPTKILI; listed as Homo sapiens) [compound 186]”: the “Peptide Exchange” value is listed as ““++++” (>75% = ++++)”. “152 (SLIRILQTI; listed as Homo sapiens) [compound 152]”: the “Peptide Exchange” value is given as ““+++” (>50 = +++)”.

In the case of “244 (ILQALAVHL; listed as Homo sapiens) [compound 244]”, the “Peptide Exchange” value was ““+++” (>50 = +++)”. With “274 (VLLEYHIAYL; listed as Homo sapiens) [compound 274]”, the “Peptide Exchange” value is given as ““+++” (>50 = +++)”.

Turning to “139 (NLTDVVEKL; listed as Homo sapiens) [compound 139]”, the “Peptide Exchange” value is recorded as ““+++” (>50 = +++)”.

For “13 (VVDGMPPGV; listed as Homo sapiens) [compound 13]”, the “Peptide Exchange” value is given as ““+++” (>50 = +++)”. Consider “110 (LLFDHLEPMEL; listed as Homo sapiens) [compound 110]”, for which the “Peptide Exchange” value is ““+++” (>50 = +++)”. The value for “189 (VMLEMTPEL; listed as Homo sapiens) [compound 189]” was ““+++” (>50 = +++)”. The value for “349 (ALATHILSL; listed as Homo sapiens) [compound 349]” was ““+++” (>50 = +++)”; that for “317 (NLLAHIWAL; listed as Homo sapiens) [compound 317]” was ““+++” (>50 = +++)”. The value for “375 (VLWFKPVEL; listed as Homo sapiens) [compound 375]” was ““+++” (>50 = +++)”; that for “85 (HLMLHTAAL; listed as Homo sapiens) [compound 85]” was ““++++” (>75% = ++++)”.

As for “268 (TLLQVFHLL; listed as Homo sapiens) [compound 268]”, the “Peptide Exchange” value was ““+++” (>50 = +++)”. In the case of “73 (GLLEVISALQL; listed as Homo sapiens) [compound 73]”, the “Peptide Exchange” value was ““+++” (>50 = +++)”. In the case of “234 (GLDDAEYAL; listed as Homo sapiens) [compound 234]”, the “Peptide Exchange” value is given as ““++” (>20% = ++)”. The value for “194 (YLDNVLAEL; listed as Homo sapiens) [compound 194]” was ““++++” (>75% = ++++)”; that for “353 (ATPMPTPSV; listed as Homo sapiens) [compound 353]” was ““++” (>20% = ++)”; that for “133 (YLLSGDISEA; listed as Homo sapiens) [compound 133]” was ““+++” (>50 = +++)”.

Take “361 (ILQEFESKL; listed as Homo sapiens) [compound 361]”: the “Peptide Exchange” value is reported as ““+++” (>50 = +++)”.

As for “169 (TLLLGLTEV; listed as Homo sapiens) [compound 169]”, the “Peptide Exchange” value is on record as ““+++” (>50 = +++)”. As for “315 (LVYEAPETV; listed as Homo sapiens) [compound 315]”, the “Peptide Exchange” value is on record as ““+++” (>50 = +++)”. “381 (YLLEENKIKL; listed as Homo sapiens) [compound 381]”: the “Peptide Exchange” value was ““+++” (>50 = +++)”.

On to “56 (FVFEAPYTL; listed as Homo sapiens) [compound 56]”, for which the “Peptide Exchange” value is ““+++” (>50 = +++)”.

With “325 (TLENGVPCV; listed as Homo sapiens) [compound 325]”, the “Peptide Exchange” value is reported as ““+++” (>50 = +++)”. The value for “80 (VLIEDELEEL; listed as Homo sapiens) [compound 80]” was ““++” (>20% = ++)”. “174 (VLAELPIIVV; listed as Homo sapiens) [compound 174]”: the “Peptide Exchange” value is recorded as ““+++” (>50 = +++)”.

As for “99 (ILIFHSVAL; listed as Homo sapiens) [compound 99]”, the “Peptide Exchange” value is ““+++” (>50 = +++)”.

Regarding “220 (ALPEILFAKV; listed as Homo sapiens) [compound 220]”, the “Peptide Exchange” value was ““+++” (>50 = +++)”. The value for “140 (QIAELPATSV; listed as Homo sapiens) [compound 140]” was ““+++” (>50 = +++)”. Consider “27 (AVLGLVWLL; listed as Homo sapiens) [compound 27]”, for which the “Peptide Exchange” value was ““+++” (>50 = +++)”.
